This experiment deals with dynein/ dynactin/ BicD2-S complex (human | human (endogenous in HEK293-T)) (UniProt Q14204). Kind of experiment: single-molecule TIRF colocalisation on microtubules.
dynein/ dynactin/ BicD2-S complex (human | human (endogenous in HEK293-T)), sequence (Q14204 whole entry, looked up, one chain of several): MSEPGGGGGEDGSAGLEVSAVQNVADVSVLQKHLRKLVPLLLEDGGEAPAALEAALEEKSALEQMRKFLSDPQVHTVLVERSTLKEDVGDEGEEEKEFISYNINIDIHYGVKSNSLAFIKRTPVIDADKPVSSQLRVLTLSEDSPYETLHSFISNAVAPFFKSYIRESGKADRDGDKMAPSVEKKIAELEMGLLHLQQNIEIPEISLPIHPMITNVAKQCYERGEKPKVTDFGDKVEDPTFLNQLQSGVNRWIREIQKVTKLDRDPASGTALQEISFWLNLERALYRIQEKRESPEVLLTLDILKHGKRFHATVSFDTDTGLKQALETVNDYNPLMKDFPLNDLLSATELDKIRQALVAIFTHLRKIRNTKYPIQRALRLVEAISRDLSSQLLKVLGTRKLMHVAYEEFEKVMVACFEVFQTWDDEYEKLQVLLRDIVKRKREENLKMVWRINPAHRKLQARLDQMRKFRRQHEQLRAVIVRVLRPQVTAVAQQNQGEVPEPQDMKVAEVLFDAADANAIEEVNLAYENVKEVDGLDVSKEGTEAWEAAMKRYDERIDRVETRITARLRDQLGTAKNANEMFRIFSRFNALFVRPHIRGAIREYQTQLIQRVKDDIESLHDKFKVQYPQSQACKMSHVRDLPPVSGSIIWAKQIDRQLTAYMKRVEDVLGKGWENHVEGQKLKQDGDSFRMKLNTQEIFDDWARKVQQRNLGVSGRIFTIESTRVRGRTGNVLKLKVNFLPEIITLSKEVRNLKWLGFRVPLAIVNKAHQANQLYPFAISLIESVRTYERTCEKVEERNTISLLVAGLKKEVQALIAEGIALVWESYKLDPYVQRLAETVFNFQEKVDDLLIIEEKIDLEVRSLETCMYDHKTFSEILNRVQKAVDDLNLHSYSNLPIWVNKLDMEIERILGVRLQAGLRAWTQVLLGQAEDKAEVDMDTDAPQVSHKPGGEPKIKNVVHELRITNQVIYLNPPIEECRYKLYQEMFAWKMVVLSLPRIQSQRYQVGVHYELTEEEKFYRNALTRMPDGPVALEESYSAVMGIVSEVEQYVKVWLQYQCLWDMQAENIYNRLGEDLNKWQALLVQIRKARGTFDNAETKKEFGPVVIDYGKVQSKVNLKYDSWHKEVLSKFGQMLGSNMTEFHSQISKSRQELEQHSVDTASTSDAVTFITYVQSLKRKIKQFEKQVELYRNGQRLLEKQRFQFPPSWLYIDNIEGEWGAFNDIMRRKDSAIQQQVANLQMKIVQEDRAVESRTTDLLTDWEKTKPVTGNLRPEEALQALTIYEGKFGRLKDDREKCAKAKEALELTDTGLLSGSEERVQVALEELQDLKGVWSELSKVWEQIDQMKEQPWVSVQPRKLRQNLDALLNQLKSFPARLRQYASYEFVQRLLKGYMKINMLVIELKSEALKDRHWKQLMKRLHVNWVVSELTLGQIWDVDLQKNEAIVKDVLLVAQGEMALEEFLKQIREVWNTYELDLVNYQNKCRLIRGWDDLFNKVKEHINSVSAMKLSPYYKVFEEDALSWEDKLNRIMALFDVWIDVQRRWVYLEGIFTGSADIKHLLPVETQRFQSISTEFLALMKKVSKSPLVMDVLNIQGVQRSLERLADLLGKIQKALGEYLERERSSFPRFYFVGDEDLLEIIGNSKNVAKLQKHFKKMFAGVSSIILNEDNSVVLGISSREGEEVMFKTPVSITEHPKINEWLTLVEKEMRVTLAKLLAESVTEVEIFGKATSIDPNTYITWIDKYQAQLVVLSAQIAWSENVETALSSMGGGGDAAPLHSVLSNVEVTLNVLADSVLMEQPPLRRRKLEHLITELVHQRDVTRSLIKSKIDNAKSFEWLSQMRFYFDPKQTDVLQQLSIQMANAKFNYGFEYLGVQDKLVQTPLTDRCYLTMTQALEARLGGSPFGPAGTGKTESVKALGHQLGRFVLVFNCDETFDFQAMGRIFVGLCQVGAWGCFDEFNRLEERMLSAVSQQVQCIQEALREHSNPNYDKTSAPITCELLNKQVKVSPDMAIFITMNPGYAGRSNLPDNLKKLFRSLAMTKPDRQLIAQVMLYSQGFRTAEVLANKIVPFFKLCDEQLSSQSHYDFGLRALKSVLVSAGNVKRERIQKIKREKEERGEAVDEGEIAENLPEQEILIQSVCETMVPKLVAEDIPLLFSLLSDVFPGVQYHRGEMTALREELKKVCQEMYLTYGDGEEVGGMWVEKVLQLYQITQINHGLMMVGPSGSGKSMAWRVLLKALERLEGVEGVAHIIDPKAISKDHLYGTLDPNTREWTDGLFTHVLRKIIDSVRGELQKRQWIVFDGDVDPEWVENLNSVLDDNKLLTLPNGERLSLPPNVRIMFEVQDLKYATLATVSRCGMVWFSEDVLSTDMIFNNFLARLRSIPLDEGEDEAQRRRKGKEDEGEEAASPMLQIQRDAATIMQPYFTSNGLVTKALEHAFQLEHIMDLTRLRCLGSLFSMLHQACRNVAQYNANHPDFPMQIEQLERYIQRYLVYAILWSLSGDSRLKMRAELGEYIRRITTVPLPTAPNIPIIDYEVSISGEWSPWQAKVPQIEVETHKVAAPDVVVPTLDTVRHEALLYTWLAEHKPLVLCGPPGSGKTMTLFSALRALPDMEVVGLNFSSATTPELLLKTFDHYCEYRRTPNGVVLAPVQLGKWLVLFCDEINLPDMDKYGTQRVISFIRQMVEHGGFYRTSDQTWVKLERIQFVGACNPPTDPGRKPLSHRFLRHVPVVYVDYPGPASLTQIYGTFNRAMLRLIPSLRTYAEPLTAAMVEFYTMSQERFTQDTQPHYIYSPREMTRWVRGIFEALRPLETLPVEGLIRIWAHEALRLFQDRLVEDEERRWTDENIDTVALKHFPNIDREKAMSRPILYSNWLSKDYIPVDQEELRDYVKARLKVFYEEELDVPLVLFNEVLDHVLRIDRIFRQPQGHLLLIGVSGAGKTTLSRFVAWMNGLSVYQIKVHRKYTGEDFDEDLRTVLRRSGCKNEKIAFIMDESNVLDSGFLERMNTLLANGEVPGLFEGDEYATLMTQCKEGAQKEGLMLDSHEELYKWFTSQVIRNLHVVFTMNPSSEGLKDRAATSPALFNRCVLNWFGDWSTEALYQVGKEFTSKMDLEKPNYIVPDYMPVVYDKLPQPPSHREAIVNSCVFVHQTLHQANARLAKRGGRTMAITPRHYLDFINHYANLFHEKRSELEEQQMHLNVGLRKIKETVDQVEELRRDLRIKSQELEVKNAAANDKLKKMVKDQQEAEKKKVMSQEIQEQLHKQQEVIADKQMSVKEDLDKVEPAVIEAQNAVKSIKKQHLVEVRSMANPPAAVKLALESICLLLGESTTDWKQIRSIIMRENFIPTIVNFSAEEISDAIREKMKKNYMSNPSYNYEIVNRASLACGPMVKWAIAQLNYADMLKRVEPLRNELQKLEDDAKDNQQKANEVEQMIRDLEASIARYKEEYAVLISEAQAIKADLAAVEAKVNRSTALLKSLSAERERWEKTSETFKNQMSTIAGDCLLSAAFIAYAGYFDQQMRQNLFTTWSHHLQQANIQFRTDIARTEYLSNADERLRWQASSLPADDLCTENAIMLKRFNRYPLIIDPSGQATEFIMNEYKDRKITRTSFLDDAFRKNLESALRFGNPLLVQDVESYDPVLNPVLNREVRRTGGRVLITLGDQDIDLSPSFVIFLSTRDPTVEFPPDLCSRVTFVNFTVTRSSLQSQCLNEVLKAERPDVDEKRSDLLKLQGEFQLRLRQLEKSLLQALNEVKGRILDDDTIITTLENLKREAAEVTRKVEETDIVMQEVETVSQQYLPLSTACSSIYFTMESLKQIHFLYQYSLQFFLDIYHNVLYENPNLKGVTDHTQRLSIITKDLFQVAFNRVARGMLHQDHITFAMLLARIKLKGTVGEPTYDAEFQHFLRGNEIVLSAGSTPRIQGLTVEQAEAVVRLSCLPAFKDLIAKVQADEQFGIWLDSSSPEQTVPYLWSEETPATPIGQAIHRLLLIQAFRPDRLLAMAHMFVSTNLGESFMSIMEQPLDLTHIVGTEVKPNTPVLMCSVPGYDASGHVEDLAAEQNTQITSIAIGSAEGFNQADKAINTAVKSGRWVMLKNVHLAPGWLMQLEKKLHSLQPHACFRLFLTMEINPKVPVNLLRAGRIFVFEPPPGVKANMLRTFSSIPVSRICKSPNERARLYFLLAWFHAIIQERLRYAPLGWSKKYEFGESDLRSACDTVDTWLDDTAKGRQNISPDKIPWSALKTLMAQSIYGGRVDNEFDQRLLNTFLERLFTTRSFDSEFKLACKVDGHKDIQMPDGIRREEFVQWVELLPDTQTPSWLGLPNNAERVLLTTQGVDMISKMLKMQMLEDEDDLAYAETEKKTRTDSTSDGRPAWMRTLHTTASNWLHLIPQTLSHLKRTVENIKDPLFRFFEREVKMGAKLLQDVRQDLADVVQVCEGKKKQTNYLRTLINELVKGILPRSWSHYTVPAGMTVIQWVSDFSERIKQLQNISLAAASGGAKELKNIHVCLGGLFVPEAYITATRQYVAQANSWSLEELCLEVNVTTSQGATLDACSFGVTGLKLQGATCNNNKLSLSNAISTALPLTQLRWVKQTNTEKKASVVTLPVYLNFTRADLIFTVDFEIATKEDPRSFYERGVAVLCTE

As to “HaloTag-Lis1 (human full-length Lis1, PAFAH1B1) (from UniProt P43034 1-410) (natural protein)”, the percent of dynein runs that comigrated with Lis1 worked out at 16.8%.

(Values after article doi:10.1101/683052.)
